In US20100310635A1, “Compositions and Methods for Regulating T-Cell Activity” (priority 2007, published 2010):
“Also recorded” adds a separate entry of the source.

Legend:
[1] = test system: CD4+CD25− Teff cell proliferation; assay: Suppression assay: suppression of Teff cell proliferation by transduced CD4+ cells expressing Foxp3 forms; type: cell-based, mouse; details: retrovirally transduced CD4+ cells expressing the Foxp3 form, co-cultured with CFSE-labeled CD4+CD25− T cells, 72 hr
Description: Suppression assays—CD4+CD25+ (T-reg) and CD4+CD25− (T-eff) T cell and APC are isolated with magnetic beads following the manufacturer's instructions (Miltenyi). In some cases, 5×10^4 CD4+CD25− T cells were labeled with CFSE and stimulated with CD3 mAb (1 μg/ml) in the presence of irradiated syngeneic APC and varying ratios of activated CD4+ cells that had been transduced with different Foxp3 constructs. […] After 72 hours culture, cells were harvested and CD4+CD25− T cell proliferation was quantified by flow cytometry (Cyan) based on carboxylfluorescein diacetate succininyl ester (CFSE) profile of dividing effector T cells at 72 hr. Absolute numbers of effector T cells were determined by adding equal numbers of Dynabeads to each sample, and during FACS analysis gates were drawn on Dynabeads and collection time was based on set number of bead events for each sample. […]
WT Foxp3 and engineered Foxp3 mutants (N-terminal cleaved, C-terminal cleaved and N -plus C-terminal-cleaved (double-cleaved)) were retrovirally expressed in CD4+ cells and the ability of the transduced cells to suppress Teff cell proliferation was measured.

RAG−/− (C57BL/6) mice = assay: Adoptive transfer model of IBD; type: in vivo, mouse; details: for weight loss: 1×10^5 transduced Thy1.1+CD4+ cells plus 1×10^6 CD4+CD25− Teff cells i.p., weights monitored for 45 days; for histology of duodenal sections: duodenal samples collected at day 45, H&E
Source text: Adoptive transfer model of IBD—CD4+CD25− T cells were isolated from mesenteric lymph nodes using magnetic beads (Miltenyi) to >95% purity (by flow cytometry). CD4+CD25− T cells (1×10^6 cells) were co-injected i.p. into RAG1−/− (C57BL/6) mice along with Thy1.1+CD4+CD25− cells transduced with WT or mutated Foxp3 ([…]). Mice were monitored biweekly for clinical evidence of disease, including weight loss and stool consistency. RAG1−/− mice on the C57BL/6 background were purchased from Taconic Laboratory. Mice were housed in specific pathogen-free conditions, and used for studies approved by the institutional animal care and use committee of the Children's Hospital of Philadelphia.
Pathology—Gut samples were paraffin embedded and stained by H&E, or snap-frozen and stained by immunoperoxidase using mAbs to Foxp3 and T cell subsets (73).
To test the effects of the different Foxp3 mutants in vivo, RAG−/− (C57BL/6) mice were injected with 1×10^5 transduced Thy1.1+CD4+ cells expressing either WT-Foxp3 or a mutant Foxp3 (RKKR• (SEQ ID NO: 179), QNKR• (SEQ ID NO: 180), QNKR-- (SEQ ID NO: 180)) or empty vector (control), plus 1×10^6 CD4+CD25− Teff cells. Additional mice received CD4+CD25− Teff cells alone. The weights of the animals in each group were monitored weekly for 45 days.

Molecule	suppression of Teff cell proliferation [1]	weight loss (RAG−/− (C57BL/6) mice)	histology of duodenal sections (RAG−/− (C57BL/6) mice)	survival (RAG−/− (C57BL/6) mice; 1×10^5 transduced CD4+ cells plus 1×10^6 CD4+CD25− Teff cells, 45 days)
double-cleaved Foxp3: engineered Foxp3 lacking N-terminal 51-aa and C-terminal tail (366-aa) (protein) SGAHTSSSLNPLPPSQLQLPTVPLVMVAPSGARLGPSPHLQALLQDRPHFMHQLSTVDAHAQTPVLQVRPLDNPAMISLPPPSAATGVFSLKARPGLPPGINVASLEWVSREPALLCTFPRSGTPRKDSNLLAAPQGSYPLLANGVCKWPGCEKVFEEPEEFLKHCQADHLLDEKGKAQCLLQREVVQSLEQQLELEKEKLGAMQAHLAGKMALAKAPSVASMDKSSCCIVATSTQGSVLPAWSAPREAPDGGLFAVRRHLWGSHGNSSFPEFFHNMDYFKYHNMRPPFTYATLIRWAILEAPERQRTLNEIYHWFTRMFAYFRNHPATWKNAIRHNLSLHKCFVRVESEKGAVWTVDEFEFRKKR	suppressed Teff cell proliferation stronger than both WTFoxp3 and N-terminal-cleaved Foxp3			
C-cleaved PNNW mutant: short 417-aa Foxp3 in which the last four amino acids RKKR are replaced with PNNW (protein, UniProt Q99JB6 1-417, looked up, variant R414P K415N K416N R417W) MPNPRPAKPMAPSLALGPSPGVLPSWKTAPKGSELLGTRGSGGPFQGRDLRSGAHTSSSLNPLPPSQLQLPTVPLVMVAPSGARLGPSPHLQALLQDRPHFMHQLSTVDAHAQTPVLQVRPLDNPAMISLPPPSAATGVFSLKARPGLPPGINVASLEWVSREPALLCTFPRSGTPRKDSNLLAAPQGSYPLLANGVCKWPGCEKVFEEPEEFLKHCQADHLLDEKGKAQCLLQREVVQSLEQQLELEKEKLGAMQAHLAGKMALAKAPSVASMDKSSCCIVATSTQGSVLPAWSAPREAPDGGLFAVRRHLWGSHGNSSFPEFFHNMDYFKYHNMRPPFTYATLIRWAILEAPERQRTLNEIYHWFTRMFAYFRNHPATWKNAIRHNLSLHKCFVRVESEKGAVWTVDEFEFPNNW	loss in the suppression ability			
QNKR•: short 417-aa Foxp3 mutant without C-terminal tail, terminating with QNKR (protein, UniProt Q99JB6 1-417, looked up, variant R414Q K415N) MPNPRPAKPMAPSLALGPSPGVLPSWKTAPKGSELLGTRGSGGPFQGRDLRSGAHTSSSLNPLPPSQLQLPTVPLVMVAPSGARLGPSPHLQALLQDRPHFMHQLSTVDAHAQTPVLQVRPLDNPAMISLPPPSAATGVFSLKARPGLPPGINVASLEWVSREPALLCTFPRSGTPRKDSNLLAAPQGSYPLLANGVCKWPGCEKVFEEPEEFLKHCQADHLLDEKGKAQCLLQREVVQSLEQQLELEKEKLGAMQAHLAGKMALAKAPSVASMDKSSCCIVATSTQGSVLPAWSAPREAPDGGLFAVRRHLWGSHGNSSFPEFFHNMDYFKYHNMRPPFTYATLIRWAILEAPERQRTLNEIYHWFTRMFAYFRNHPATWKNAIRHNLSLHKCFVRVESEKGAVWTVDEFEFQNKR		negligible weight loss; also recorded: significantly more effective in controlling weight loss	minor mononuclear cell infiltration and edema	
WT-Foxp3: wild-type mouse Foxp3, 429-aa, retrovirally expressed in CD4+ T cells (protein) MPNPRPAKPMAPSLALGPSPGVLPSWKTAPKGSELLGTRGSGGPFQGRDLRSGAHTSSSLNPLPPSQLQLPTVPLVMVAPSGARLGPSPHLQALLQDRPHFMHQLSTVDAHAQTPVLQVRPLDNPAMISLPPPSAATGVFSLKARPGLPPGINVASLEWVSREPALLCTFPRSGTPRKDSNLLAAPQGSYPLLANGVCKWPGCEKVFEEPEEFLKHCQADHLLDEKGKAQCLLQREVVQSLEQQLELEKEKLGAMQAHLAGKMALAKAPSVASMDKSSCCIVATSTQGSVLPAWSAPREAPDGGLFAVRRHLWGSHGNSSFPEFFHNMDYFKYHNMRPPFTYATLIRWAILEAPERQRTLNEIYHWFTRMFAYFRNHPATWKNAIRHNLSLHKCFVRVESEKGAVWTVDEFEFRKKRSQRPNKCSNPCP		minor weight loss; also recorded: benefit	mild cell mononuclear cell infiltration and edema within villi; also recorded: mild mononuclear cell recruitment and villous edema	survived
QNKR--: 429-aa Foxp3 with RKKR replaced by QNKR, intact C-terminal tail resistant to proteolytic cleavage (protein, UniProt Q99JB6 1-429, looked up, variant R414Q K415N) Forkhead box protein P3: MPNPRPAKPMAPSLALGPSPGVLPSWKTAPKGSELLGTRGSGGPFQGRDLRSGAHTSSSLNPLPPSQLQLPTVPLVMVAPSGARLGPSPHLQALLQDRPHFMHQLSTVDAHAQTPVLQVRPLDNPAMISLPPPSAATGVFSLKARPGLPPGINVASLEWVSREPALLCTFPRSGTPRKDSNLLAAPQGSYPLLANGVCKWPGCEKVFEEPEEFLKHCQADHLLDEKGKAQCLLQREVVQSLEQQLELEKEKLGAMQAHLAGKMALAKAPSVASMDKSSCCIVATSTQGSVLPAWSAPREAPDGGLFAVRRHLWGSHGNSSFPEFFHNMDYFKYHNMRPPFTYATLIRWAILEAPERQRTLNEIYHWFTRMFAYFRNHPATWKNAIRHNLSLHKCFVRVESEKGAVWTVDEFEFQNKRSQRPNKCSNPCP		did significantly worse	marked mononuclear cell infiltration of villous processes; also recorded: extensive mononuclear cell recruitment	
